In patent CN114423789A (ZHEJIANG JIANMAI PHARMACEUTICAL CO LTD, dated 2022):

B1: M10 Fab (Fab, V domains shown)
VH: QLVETGGGLVQPGRSLRLSCAASGFTFDDYAMHWVRQAPGKGLEWVSGISWNSGSIGYADSVKGRFTISRDNAKNSLYLQMNSLRAEDTAVYYCARDSGSSGWYGYFQHWGQGTLVTVSS
VL: SYVLTQPPSVSVSPGQTARITCSGDALPKQYAFWYQQKPGQAPVLVIYKDSERPSGIPERFSGSSSGTTVTLTISGVQAEDEADYYCQSADSSATSVIFGGGTKLTVLG
notes: also called Fab克隆M10
B2: M10 mAb (anti-human mesothelin monoclonal antibody IgG1) (antibody, V domains shown)
VH: B1 VH
VL: B1 VL
notes: Full human IgG1: the heavy-chain Fd of M10 Fab fused to human IgG1 Fc, about 150 kDa non-reduced; also called 抗间皮素M10 mAb; 抗间皮素单克隆抗体

Key:
[1] = molecular target: T1, recombinant human mesothelin (full-length extracellular domain) (human, UniProt Q13421 296-580, limits assumed); assay: ELISA, recombinant human mesothelin coated at 50 ng/well, Fab detected with HRP anti-FLAG
T1 construct: extracellular domain; Bought protein coated on ELISA plates at 50 ng per well; also called 重组人间皮素; 人间皮素(MSLN)蛋白
T1 sequence (Q13421 other isoform, or with tags, fused parts or gaps limits assumed): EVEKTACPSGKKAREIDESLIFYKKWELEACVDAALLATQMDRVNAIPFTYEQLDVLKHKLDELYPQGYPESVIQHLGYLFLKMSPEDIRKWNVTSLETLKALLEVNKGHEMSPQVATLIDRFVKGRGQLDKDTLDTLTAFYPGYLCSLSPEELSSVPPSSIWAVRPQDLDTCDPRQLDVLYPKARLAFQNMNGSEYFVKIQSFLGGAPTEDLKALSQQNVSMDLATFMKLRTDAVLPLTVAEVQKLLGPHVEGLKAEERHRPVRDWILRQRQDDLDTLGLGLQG

[2] = molecular target: T1, recombinant human mesothelin …; assay: ELISA, recombinant human mesothelin coated at 50 ng/well, fit to a Langmuir isotherm

| Binder | EC50 [1] | EC50 [2] |
| --- | --- | --- |
| B1 | 21 nM | – |
| B2 | – | 0.2 nM |
